Reference: patent US20150344570A1 (published 2015)

B1: GpH7-A5/GpH7-B3 variant A327_09D/GpL16-k0 (antibody, human IgG1, kappa)
heavy 1: not shown
heavy 2: not shown
light: DIVMTQSPLSLPVTPGEPASISCQASESLVHSNRNTYLHWYLQKPGQSPQLLIYKVSNRFSGVPDRFSGSGSGTDFTLKISRVEAEDVGVYYCSQNTHVPPTFGQGTKVEIERTVAAPSVFIFPPSDEQLKSGTASVVCLLNNFYPREAKVQWKVDNALQSGNSQESVTEQDSKDSTYSLSSTLTLSKADYEKHKVYACEVTHQGLSSPVTKSFNRGEC
notes: also called He Ab A327_09D
B2: GpH7-B3 variant T335_07I/GpL16-k0 (antibody, human IgG1, kappa)
heavy: not shown
light: DIVMTQSPLSLPVTPGEPASISCQASESLVHSNRNTYLHWYLQKPGQSPQLLIYKVSNRFSGVPDRFSGSGSGTDFTLKISRVEAEDVGVYYCSQNTHVPPTFGQGTKVEIERTVAAPSVFIFPPSDEQLKSGTASVVCLLNNFYPREAKVQWKVDNALQSGNSQESVTEQDSKDSTYSLSSTLTLSKADYEKHKVYACEVTHQGLSSPVTKSFNRGEC
notes: also called Ho Ab T335_07I
B3: GpH7-A5/GpH7-B3 variant A330_19Q/GpL16-k0 (antibody, human IgG1, kappa)
heavy 1: not shown
heavy 2: not shown
light: DIVMTQSPLSLPVTPGEPASISCQASESLVHSNRNTYLHWYLQKPGQSPQLLIYKVSNRFSGVPDRFSGSGSGTDFTLKISRVEAEDVGVYYCSQNTHVPPTFGQGTKVEIERTVAAPSVFIFPPSDEQLKSGTASVVCLLNNFYPREAKVQWKVDNALQSGNSQESVTEQDSKDSTYSLSSTLTLSKADYEKHKVYACEVTHQGLSSPVTKSFNRGEC
notes: also called He Ab A330_19Q
B4: GpH7-B3 variant S337_09D/GpL16-k0 (antibody, human IgG1, kappa)
heavy: not shown
light: DIVMTQSPLSLPVTPGEPASISCQASESLVHSNRNTYLHWYLQKPGQSPQLLIYKVSNRFSGVPDRFSGSGSGTDFTLKISRVEAEDVGVYYCSQNTHVPPTFGQGTKVEIERTVAAPSVFIFPPSDEQLKSGTASVVCLLNNFYPREAKVQWKVDNALQSGNSQESVTEQDSKDSTYSLSSTLTLSKADYEKHKVYACEVTHQGLSSPVTKSFNRGEC
notes: also called Ho Ab S337_09D
B5: GpH7-B3 variant T335_19Q/GpL16-k0 (antibody, human IgG1, kappa)
heavy: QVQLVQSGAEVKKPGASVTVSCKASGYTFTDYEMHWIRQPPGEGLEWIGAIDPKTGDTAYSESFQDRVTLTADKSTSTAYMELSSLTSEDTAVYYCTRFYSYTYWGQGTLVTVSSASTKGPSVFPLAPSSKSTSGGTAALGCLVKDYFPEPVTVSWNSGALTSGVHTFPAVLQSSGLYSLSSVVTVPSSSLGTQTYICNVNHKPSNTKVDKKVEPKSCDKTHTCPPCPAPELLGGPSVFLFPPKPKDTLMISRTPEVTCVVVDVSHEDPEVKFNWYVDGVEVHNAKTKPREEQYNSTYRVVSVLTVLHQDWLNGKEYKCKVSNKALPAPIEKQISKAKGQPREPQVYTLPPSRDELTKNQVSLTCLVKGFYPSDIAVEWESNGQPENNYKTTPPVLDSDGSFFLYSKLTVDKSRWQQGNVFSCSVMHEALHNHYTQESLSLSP
light: DIVMTQSPLSLPVTPGEPASISCQASESLVHSNRNTYLHWYLQKPGQSPQLLIYKVSNRFSGVPDRFSGSGSGTDFTLKISRVEAEDVGVYYCSQNTHVPPTFGQGTKVEIERTVAAPSVFIFPPSDEQLKSGTASVVCLLNNFYPREAKVQWKVDNALQSGNSQESVTEQDSKDSTYSLSSTLTLSKADYEKHKVYACEVTHQGLSSPVTKSFNRGEC
notes: also called Ho Ab T335_19Q
B6: GpH7-B3 variant S337_10E/GpL16-k0 (antibody, human IgG1, kappa)
heavy: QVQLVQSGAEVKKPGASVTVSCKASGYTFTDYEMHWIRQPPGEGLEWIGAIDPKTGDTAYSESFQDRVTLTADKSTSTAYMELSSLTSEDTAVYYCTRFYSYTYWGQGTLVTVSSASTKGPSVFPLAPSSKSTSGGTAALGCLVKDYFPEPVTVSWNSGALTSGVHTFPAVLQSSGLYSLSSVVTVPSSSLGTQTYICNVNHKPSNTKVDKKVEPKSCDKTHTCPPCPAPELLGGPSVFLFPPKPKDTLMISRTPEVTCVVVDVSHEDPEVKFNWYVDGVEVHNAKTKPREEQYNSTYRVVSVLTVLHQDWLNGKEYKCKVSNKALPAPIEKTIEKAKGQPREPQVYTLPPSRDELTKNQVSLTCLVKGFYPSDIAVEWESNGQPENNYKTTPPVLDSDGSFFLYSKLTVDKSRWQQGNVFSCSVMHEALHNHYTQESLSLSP
light: DIVMTQSPLSLPVTPGEPASISCQASESLVHSNRNTYLHWYLQKPGQSPQLLIYKVSNRFSGVPDRFSGSGSGTDFTLKISRVEAEDVGVYYCSQNTHVPPTFGQGTKVEIERTVAAPSVFIFPPSDEQLKSGTASVVCLLNNFYPREAKVQWKVDNALQSGNSQESVTEQDSKDSTYSLSSTLTLSKADYEKHKVYACEVTHQGLSSPVTKSFNRGEC
notes: also called Ho Ab S337_10E
B7: GpH7-A5/GpH7-B3 variant E333_13S/GpL16-k0 (antibody, human IgG1, kappa)
heavy 1: not shown
heavy 2: not shown
light: DIVMTQSPLSLPVTPGEPASISCQASESLVHSNRNTYLHWYLQKPGQSPQLLIYKVSNRFSGVPDRFSGSGSGTDFTLKISRVEAEDVGVYYCSQNTHVPPTFGQGTKVEIERTVAAPSVFIFPPSDEQLKSGTASVVCLLNNFYPREAKVQWKVDNALQSGNSQESVTEQDSKDSTYSLSSTLTLSKADYEKHKVYACEVTHQGLSSPVTKSFNRGEC
notes: also called He Ab E333_13S
B8: GpH7-A5/GpH7-B3 variant E333_08L/GpL16-k0 (antibody, human IgG1, kappa)
heavy 1: not shown
heavy 2: not shown
light: DIVMTQSPLSLPVTPGEPASISCQASESLVHSNRNTYLHWYLQKPGQSPQLLIYKVSNRFSGVPDRFSGSGSGTDFTLKISRVEAEDVGVYYCSQNTHVPPTFGQGTKVEIERTVAAPSVFIFPPSDEQLKSGTASVVCLLNNFYPREAKVQWKVDNALQSGNSQESVTEQDSKDSTYSLSSTLTLSKADYEKHKVYACEVTHQGLSSPVTKSFNRGEC
notes: also called He Ab E333_08L
B9: GpH7-B3 variant S324_02A/GpL16-k0 (antibody, human IgG1, kappa)
heavy: not shown
light: DIVMTQSPLSLPVTPGEPASISCQASESLVHSNRNTYLHWYLQKPGQSPQLLIYKVSNRFSGVPDRFSGSGSGTDFTLKISRVEAEDVGVYYCSQNTHVPPTFGQGTKVEIERTVAAPSVFIFPPSDEQLKSGTASVVCLLNNFYPREAKVQWKVDNALQSGNSQESVTEQDSKDSTYSLSSTLTLSKADYEKHKVYACEVTHQGLSSPVTKSFNRGEC
notes: also called Ho Ab S324_02A
B10: GpH7-A5/GpH7-B3 variant G236_04F/GpL16-k0 (antibody, human IgG1, kappa)
heavy 1: not shown
heavy 2: not shown
light: DIVMTQSPLSLPVTPGEPASISCQASESLVHSNRNTYLHWYLQKPGQSPQLLIYKVSNRFSGVPDRFSGSGSGTDFTLKISRVEAEDVGVYYCSQNTHVPPTFGQGTKVEIERTVAAPSVFIFPPSDEQLKSGTASVVCLLNNFYPREAKVQWKVDNALQSGNSQESVTEQDSKDSTYSLSSTLTLSKADYEKHKVYACEVTHQGLSSPVTKSFNRGEC
notes: also called He Ab G236_04F
B11: GpH7-B3 variant S239_09D/GpL16-k0 (antibody, human IgG1, kappa)
heavy: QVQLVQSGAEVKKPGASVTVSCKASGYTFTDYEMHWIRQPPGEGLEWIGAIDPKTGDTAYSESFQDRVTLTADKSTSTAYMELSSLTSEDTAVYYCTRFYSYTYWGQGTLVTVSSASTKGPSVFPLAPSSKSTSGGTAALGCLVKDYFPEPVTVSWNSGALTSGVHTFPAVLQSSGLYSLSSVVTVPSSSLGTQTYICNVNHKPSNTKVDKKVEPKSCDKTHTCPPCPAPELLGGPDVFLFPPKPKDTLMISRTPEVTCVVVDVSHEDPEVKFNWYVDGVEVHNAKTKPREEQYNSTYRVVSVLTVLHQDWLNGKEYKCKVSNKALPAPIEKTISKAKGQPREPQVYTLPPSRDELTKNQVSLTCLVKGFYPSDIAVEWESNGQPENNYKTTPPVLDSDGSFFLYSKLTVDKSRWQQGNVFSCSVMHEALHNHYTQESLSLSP
light: DIVMTQSPLSLPVTPGEPASISCQASESLVHSNRNTYLHWYLQKPGQSPQLLIYKVSNRFSGVPDRFSGSGSGTDFTLKISRVEAEDVGVYYCSQNTHVPPTFGQGTKVEIERTVAAPSVFIFPPSDEQLKSGTASVVCLLNNFYPREAKVQWKVDNALQSGNSQESVTEQDSKDSTYSLSSTLTLSKADYEKHKVYACEVTHQGLSSPVTKSFNRGEC
notes: also called Ho Ab S239_09D
B12: GpH7-B3 variant S267_02A/GpL16-k0 (antibody, human IgG1, kappa)
heavy: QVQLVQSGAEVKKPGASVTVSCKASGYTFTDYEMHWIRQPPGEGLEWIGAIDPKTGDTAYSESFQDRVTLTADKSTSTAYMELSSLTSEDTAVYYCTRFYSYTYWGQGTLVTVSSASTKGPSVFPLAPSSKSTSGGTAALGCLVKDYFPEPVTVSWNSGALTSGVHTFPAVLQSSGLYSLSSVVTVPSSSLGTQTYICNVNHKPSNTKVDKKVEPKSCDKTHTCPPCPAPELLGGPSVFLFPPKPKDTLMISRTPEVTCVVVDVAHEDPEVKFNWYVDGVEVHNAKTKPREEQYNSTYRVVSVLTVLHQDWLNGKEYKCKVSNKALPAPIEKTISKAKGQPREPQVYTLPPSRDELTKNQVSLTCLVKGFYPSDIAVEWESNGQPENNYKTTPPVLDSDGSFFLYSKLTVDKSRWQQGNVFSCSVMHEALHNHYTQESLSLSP
light: DIVMTQSPLSLPVTPGEPASISCQASESLVHSNRNTYLHWYLQKPGQSPQLLIYKVSNRFSGVPDRFSGSGSGTDFTLKISRVEAEDVGVYYCSQNTHVPPTFGQGTKVEIERTVAAPSVFIFPPSDEQLKSGTASVVCLLNNFYPREAKVQWKVDNALQSGNSQESVTEQDSKDSTYSLSSTLTLSKADYEKHKVYACEVTHQGLSSPVTKSFNRGEC
notes: also called Ho Ab S267_02A
B13: GpH7-B3 variant T335_01G/GpL16-k0 (antibody, human IgG1, kappa)
heavy: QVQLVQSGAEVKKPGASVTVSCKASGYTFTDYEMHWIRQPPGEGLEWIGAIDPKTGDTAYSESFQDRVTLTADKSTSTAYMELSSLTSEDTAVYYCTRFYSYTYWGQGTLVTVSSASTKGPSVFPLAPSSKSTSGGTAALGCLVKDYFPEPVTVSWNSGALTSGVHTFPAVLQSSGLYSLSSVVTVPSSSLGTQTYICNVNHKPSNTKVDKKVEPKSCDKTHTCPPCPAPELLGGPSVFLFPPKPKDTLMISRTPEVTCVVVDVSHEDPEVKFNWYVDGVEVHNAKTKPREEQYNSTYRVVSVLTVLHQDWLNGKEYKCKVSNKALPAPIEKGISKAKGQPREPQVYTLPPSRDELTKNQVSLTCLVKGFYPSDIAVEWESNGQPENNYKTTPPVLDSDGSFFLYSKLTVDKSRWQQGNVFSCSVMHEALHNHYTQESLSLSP
light: DIVMTQSPLSLPVTPGEPASISCQASESLVHSNRNTYLHWYLQKPGQSPQLLIYKVSNRFSGVPDRFSGSGSGTDFTLKISRVEAEDVGVYYCSQNTHVPPTFGQGTKVEIERTVAAPSVFIFPPSDEQLKSGTASVVCLLNNFYPREAKVQWKVDNALQSGNSQESVTEQDSKDSTYSLSSTLTLSKADYEKHKVYACEVTHQGLSSPVTKSFNRGEC
notes: also called Ho Ab T335_01G
B14: GpH7-A5/GpH7-B3 variant E333_14T/GpL16-k0 (antibody, human IgG1, kappa)
heavy 1: not shown
heavy 2: not shown
light: DIVMTQSPLSLPVTPGEPASISCQASESLVHSNRNTYLHWYLQKPGQSPQLLIYKVSNRFSGVPDRFSGSGSGTDFTLKISRVEAEDVGVYYCSQNTHVPPTFGQGTKVEIERTVAAPSVFIFPPSDEQLKSGTASVVCLLNNFYPREAKVQWKVDNALQSGNSQESVTEQDSKDSTYSLSSTLTLSKADYEKHKVYACEVTHQGLSSPVTKSFNRGEC
notes: also called He Ab E333_14T
B15: GpH7-B3 variant T335_15Y/GpL16-k0 (antibody, human IgG1, kappa)
heavy: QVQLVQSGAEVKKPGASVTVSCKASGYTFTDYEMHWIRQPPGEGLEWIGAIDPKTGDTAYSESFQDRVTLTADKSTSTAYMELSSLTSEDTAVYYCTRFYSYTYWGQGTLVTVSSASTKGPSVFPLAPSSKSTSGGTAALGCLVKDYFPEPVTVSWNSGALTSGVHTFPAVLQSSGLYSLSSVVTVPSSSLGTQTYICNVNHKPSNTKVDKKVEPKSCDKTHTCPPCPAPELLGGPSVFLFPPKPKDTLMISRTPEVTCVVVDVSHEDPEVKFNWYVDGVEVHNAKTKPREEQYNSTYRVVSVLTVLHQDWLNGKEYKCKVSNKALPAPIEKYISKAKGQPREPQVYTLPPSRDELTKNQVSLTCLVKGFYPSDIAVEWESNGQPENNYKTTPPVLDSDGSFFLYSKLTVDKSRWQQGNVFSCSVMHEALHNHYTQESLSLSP
light: DIVMTQSPLSLPVTPGEPASISCQASESLVHSNRNTYLHWYLQKPGQSPQLLIYKVSNRFSGVPDRFSGSGSGTDFTLKISRVEAEDVGVYYCSQNTHVPPTFGQGTKVEIERTVAAPSVFIFPPSDEQLKSGTASVVCLLNNFYPREAKVQWKVDNALQSGNSQESVTEQDSKDSTYSLSSTLTLSKADYEKHKVYACEVTHQGLSSPVTKSFNRGEC
notes: also called Ho Ab T335_15Y
B16: GpH7-B3 variant Y296_18N/GpL16-k0 (antibody, human IgG1, kappa)
heavy: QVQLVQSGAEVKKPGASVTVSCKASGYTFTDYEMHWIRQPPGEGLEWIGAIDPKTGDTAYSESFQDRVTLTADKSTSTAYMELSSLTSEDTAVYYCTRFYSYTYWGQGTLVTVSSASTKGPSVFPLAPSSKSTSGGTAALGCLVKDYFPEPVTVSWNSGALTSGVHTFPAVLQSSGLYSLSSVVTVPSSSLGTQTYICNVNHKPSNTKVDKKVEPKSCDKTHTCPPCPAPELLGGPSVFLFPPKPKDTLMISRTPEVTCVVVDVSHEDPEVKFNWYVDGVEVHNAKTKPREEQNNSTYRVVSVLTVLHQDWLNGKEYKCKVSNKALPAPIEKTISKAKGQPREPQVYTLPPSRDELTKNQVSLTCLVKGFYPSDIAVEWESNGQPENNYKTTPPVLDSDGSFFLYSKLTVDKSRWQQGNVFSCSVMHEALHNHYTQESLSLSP
light: DIVMTQSPLSLPVTPGEPASISCQASESLVHSNRNTYLHWYLQKPGQSPQLLIYKVSNRFSGVPDRFSGSGSGTDFTLKISRVEAEDVGVYYCSQNTHVPPTFGQGTKVEIERTVAAPSVFIFPPSDEQLKSGTASVVCLLNNFYPREAKVQWKVDNALQSGNSQESVTEQDSKDSTYSLSSTLTLSKADYEKHKVYACEVTHQGLSSPVTKSFNRGEC
notes: also called Ho Ab Y296_18N
B17: GpH7-B3 variant T335_16H/GpL16-k0 (antibody, human IgG1, kappa)
heavy: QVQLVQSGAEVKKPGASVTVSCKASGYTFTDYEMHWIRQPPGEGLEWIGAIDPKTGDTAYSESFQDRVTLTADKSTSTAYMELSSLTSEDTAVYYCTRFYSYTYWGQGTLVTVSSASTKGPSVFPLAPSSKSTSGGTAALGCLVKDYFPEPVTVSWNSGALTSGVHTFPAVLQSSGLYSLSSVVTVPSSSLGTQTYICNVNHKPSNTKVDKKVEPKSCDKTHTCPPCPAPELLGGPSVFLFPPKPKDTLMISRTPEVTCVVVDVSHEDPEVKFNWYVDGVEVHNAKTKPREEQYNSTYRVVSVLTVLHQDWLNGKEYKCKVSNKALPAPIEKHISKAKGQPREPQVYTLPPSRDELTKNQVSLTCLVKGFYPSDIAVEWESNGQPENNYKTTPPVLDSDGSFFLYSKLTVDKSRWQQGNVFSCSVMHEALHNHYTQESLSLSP
light: DIVMTQSPLSLPVTPGEPASISCQASESLVHSNRNTYLHWYLQKPGQSPQLLIYKVSNRFSGVPDRFSGSGSGTDFTLKISRVEAEDVGVYYCSQNTHVPPTFGQGTKVEIERTVAAPSVFIFPPSDEQLKSGTASVVCLLNNFYPREAKVQWKVDNALQSGNSQESVTEQDSKDSTYSLSSTLTLSKADYEKHKVYACEVTHQGLSSPVTKSFNRGEC
notes: also called Ho Ab T335_16H
B18: GpH7-B3 variant V266_07I/GpL16-k0 (antibody, human IgG1, kappa)
heavy: not shown
light: DIVMTQSPLSLPVTPGEPASISCQASESLVHSNRNTYLHWYLQKPGQSPQLLIYKVSNRFSGVPDRFSGSGSGTDFTLKISRVEAEDVGVYYCSQNTHVPPTFGQGTKVEIERTVAAPSVFIFPPSDEQLKSGTASVVCLLNNFYPREAKVQWKVDNALQSGNSQESVTEQDSKDSTYSLSSTLTLSKADYEKHKVYACEVTHQGLSSPVTKSFNRGEC
notes: also called Ho Ab V266_07I
B19: GpH7-A5/GpH7-B3 variant G236_14T/GpL16-k0 (antibody, human IgG1, kappa)
heavy 1: not shown
heavy 2: not shown
light: DIVMTQSPLSLPVTPGEPASISCQASESLVHSNRNTYLHWYLQKPGQSPQLLIYKVSNRFSGVPDRFSGSGSGTDFTLKISRVEAEDVGVYYCSQNTHVPPTFGQGTKVEIERTVAAPSVFIFPPSDEQLKSGTASVVCLLNNFYPREAKVQWKVDNALQSGNSQESVTEQDSKDSTYSLSSTLTLSKADYEKHKVYACEVTHQGLSSPVTKSFNRGEC
notes: also called He Ab G236_14T
B20: GpH7-B3 variant T335_13S/GpL16-k0 (antibody, human IgG1, kappa)
heavy: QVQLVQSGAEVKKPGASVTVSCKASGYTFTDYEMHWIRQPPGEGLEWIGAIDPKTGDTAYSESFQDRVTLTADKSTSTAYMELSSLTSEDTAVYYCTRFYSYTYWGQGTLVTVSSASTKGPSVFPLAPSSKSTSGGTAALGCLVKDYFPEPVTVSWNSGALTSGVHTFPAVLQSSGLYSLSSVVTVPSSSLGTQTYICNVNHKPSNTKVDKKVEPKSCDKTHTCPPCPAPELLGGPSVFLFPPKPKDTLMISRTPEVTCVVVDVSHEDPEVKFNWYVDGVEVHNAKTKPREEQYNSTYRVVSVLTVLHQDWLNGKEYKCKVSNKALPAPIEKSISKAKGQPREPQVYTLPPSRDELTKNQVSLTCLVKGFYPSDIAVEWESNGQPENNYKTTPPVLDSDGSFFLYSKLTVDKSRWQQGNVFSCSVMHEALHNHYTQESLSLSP
light: DIVMTQSPLSLPVTPGEPASISCQASESLVHSNRNTYLHWYLQKPGQSPQLLIYKVSNRFSGVPDRFSGSGSGTDFTLKISRVEAEDVGVYYCSQNTHVPPTFGQGTKVEIERTVAAPSVFIFPPSDEQLKSGTASVVCLLNNFYPREAKVQWKVDNALQSGNSQESVTEQDSKDSTYSLSSTLTLSKADYEKHKVYACEVTHQGLSSPVTKSFNRGEC
notes: also called Ho Ab T335_13S
B21: GpH7-B3 variant T335_10E/GpL16-k0 (antibody, human IgG1, kappa)
heavy: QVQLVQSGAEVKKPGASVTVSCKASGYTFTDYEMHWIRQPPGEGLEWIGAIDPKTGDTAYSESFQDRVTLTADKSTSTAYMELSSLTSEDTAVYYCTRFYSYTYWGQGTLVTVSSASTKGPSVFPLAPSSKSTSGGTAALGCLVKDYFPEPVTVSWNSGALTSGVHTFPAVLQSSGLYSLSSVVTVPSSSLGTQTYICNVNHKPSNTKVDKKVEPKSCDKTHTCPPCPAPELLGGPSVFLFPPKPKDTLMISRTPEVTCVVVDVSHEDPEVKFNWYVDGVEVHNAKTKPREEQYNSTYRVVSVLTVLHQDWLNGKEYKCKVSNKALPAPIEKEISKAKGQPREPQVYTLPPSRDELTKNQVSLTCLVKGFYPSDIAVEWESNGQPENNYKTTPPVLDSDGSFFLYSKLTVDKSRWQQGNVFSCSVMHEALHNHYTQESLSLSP
light: DIVMTQSPLSLPVTPGEPASISCQASESLVHSNRNTYLHWYLQKPGQSPQLLIYKVSNRFSGVPDRFSGSGSGTDFTLKISRVEAEDVGVYYCSQNTHVPPTFGQGTKVEIERTVAAPSVFIFPPSDEQLKSGTASVVCLLNNFYPREAKVQWKVDNALQSGNSQESVTEQDSKDSTYSLSSTLTLSKADYEKHKVYACEVTHQGLSSPVTKSFNRGEC
notes: also called Ho Ab T335_10E
B22: GpH7-A5/GpH7-B3 variant E333_04F/GpL16-k0 (antibody, human IgG1, kappa)
heavy 1: not shown
heavy 2: not shown
light: DIVMTQSPLSLPVTPGEPASISCQASESLVHSNRNTYLHWYLQKPGQSPQLLIYKVSNRFSGVPDRFSGSGSGTDFTLKISRVEAEDVGVYYCSQNTHVPPTFGQGTKVEIERTVAAPSVFIFPPSDEQLKSGTASVVCLLNNFYPREAKVQWKVDNALQSGNSQESVTEQDSKDSTYSLSSTLTLSKADYEKHKVYACEVTHQGLSSPVTKSFNRGEC
notes: also called He Ab E333_04F

Tests used:
FcγRIIa H [1] = molecular target: T1, FcγRIIa H (human, UniProt P12318 34-217); assay: SPR Biacore, captured antibody, FcγR analyte; vs GpH7-A5/GpH7-B3/GpL16-k0 = 100
FcγRIIa H [2] = molecular target: T1, FcγRIIa H; assay: SPR Biacore, captured antibody, FcγR analyte; vs GpH7-B3/GpL16-k0 = 100

T1 sequence (P12318 34-217): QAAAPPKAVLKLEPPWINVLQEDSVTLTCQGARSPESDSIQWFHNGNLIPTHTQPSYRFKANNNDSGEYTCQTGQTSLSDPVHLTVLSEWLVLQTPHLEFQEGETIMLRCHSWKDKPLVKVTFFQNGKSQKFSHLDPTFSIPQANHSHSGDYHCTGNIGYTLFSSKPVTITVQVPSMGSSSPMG

Row | Binder | He/Con_2aH (FcγRIIa H [1]) | Ho/Con_2aH (FcγRIIa H [2])
1 | B1 | 105 % of control | 
2 | B2 |  | 105 % of control
3 | B3 | 102 % of control | 
4 | B4 |  | 107 % of control
5 | B5 |  | 103 % of control
6 | B6 |  | 101 % of control
7 | B7 | 101 % of control | 
8 | B8 | 102 % of control | 
9 | B9 |  | 102 % of control
10 | B10 | 118 % of control | 
11 | B11 |  | 112 % of control
12 | B12 |  | 120 % of control
13 | B13 |  | 101 % of control
14 | B14 | 100 % of control | 
15 | B15 |  | 102 % of control
16 | B16 |  | 100 % of control
17 | B17 |  | 100 % of control
18 | B18 |  | 104 % of control
19 | B19 | 103 % of control | 
20 | B20 |  | 101 % of control
21 | B21 |  | 105 % of control
22 | B22 | 102 % of control | 
